Assay: label from the status in PepcDB records

Sequence | protein production
MQKALFNLVLRGLEKQVPATGLGLFRLAFGLVAFQEICFLYYFRQLIFDPVPYLDIASPSVHLFLVLWAIAALCLALGLYTRLAAIANYLFWLVFTVFTPMWKDFDGGFDQLMLGSSLLLIFLPSERAWSLDRLRLAWRHSTVDRCYALPRTVPVLCYFLPLAVSLGFIYFDSVIHKLFAEFWRNGLGPWLPSSLPYYMSPLDMGWLLEIEPLQRAIGYTIIAFQFAFLFLLYFRRFRVPLMLVGLSLHAGIIVSLNIYPFGFGMLVHYFLMVPFRWWRTLGRTLRPAEPALQVFYDERCPLCLKTVLAIEHFDVFRAVEFRGLQTHAATAPALEDIPERDLLGDLYAVDREGRRYSGVATYARILVAMRYPALAGLAMRLPGLATIADRVYRRIADNRVRLGCDASCAPAPGRTEPDLAQRIGRWVGGSLQQRANRISRMLVVVLILQLNCTLHYAILYRLGVDTKANEAGQVLTMLSNALISASHTFLGITPHPLYLHDHFQGYEHILGIVHLDADGKERWLPFVDEEGRIVSPNWGRVHSMWANVAVTRHMDPRRLDKFVRKVTAFWGTRLGLDLNRTTFVLKLKTVKAPMDWEPGLRRYNLAQPWEDVGRAVWRDGEMRLELDRDLEALSAD | failed
MQKGVYIMNSTSSIITIGREYGSGGRQIGQEVAKYFGIKCYDKELLEHAANDSGICKELFEHHDEKPTNSFLYSLVMDTYSFGYSSSGFSDMPMNHKIFLAQFDAIKKLAGEGPCVMVGRCADYALADWNDCFSIFVHADLDWRINRIASKHGKTPKEAKDMITKTDKSRASYYNYYTNKKWGAARSYNLCIDSGKLGIDYATEAIIESIKIFDRTKISK | failed
MQKTSFALLVAALQLASASALAATPPVADAIWFNGPIITIDDQHPKAQAVAVKDGKILAVGDRQHVLKNKGPATQMLDLKGATLLPGFVDPHGHVSMVGFQAASANLLPPPDGTNNSIPGLQETLRRFEQQSPIPKQFGVLFGFGYDDSQLQEQRHPTKADLDAVTRDLPIAIVHQSSHLGVLNSKALELAGIDASTPNPEGGVIRRVDGSQEPNGVLEENAFFNALIRIFPKLTADQAVDMLSAGQKLYVSYGYTTIQDGRSSPDQVKTAIKAAGDGKLLADIVSYPDILTPGVKQLMVAPWYHPSNQPVVYNQHFRIGGVKLTLDGSPQGKTAWLSQPYFKPPQGQDASYAGYGVVKDADALAIYKEALANRWQILSHTNGDRAIDQLLGSMRAAEQAYPGVDVRPVMIHGQTLRKDQVAELKQLKIFPSLFPMHTYYWGDWHRQSVLGPERAENISPTQWVLQAGMKFTTHHDAPVALPDSMRVLAATVNRTTRSGYVLGPDQRVTPLQALKAMTLWSAYQHFEEDRKGSITPGKLADFAVLSANPLTVKPETLSEIQVLKTVKEGRVIYERPAKVASLPPPFGMHGDPSLPVPQGIRAVAQGDGDLGPALDVIYDRLAPVQP | failed
MQLEPRINTFSMEAMFTFSSTFLYDSIVDSSRPILATSLLGCDVTDPERRATTACCICEETLSELHMTRPTQKVKAVSGPTRERHIIFSTCKPVL | failed
MQLKSRVFIVTGASSGLGAAVTRAGSGGRDSARAGPEAASGGRACRSSARRCASEMPTRMRPTPPPLAFAKQEFGHVHGLVNCAGTAPGEDSRQERPARTGQFRPHGRRQPDRHSTYGLPPRSCRRESRTPTASGVIVNTASIAAFDGQIGQAAYAAEGRRRRPDASGRARARAFRNSRRPLRPASSIRRWPACLRMFRMRAASVPFPPRLGRAEEYAALVKHIREYDAQWRGHPPRRGFAHGAPV | not failed
MQLLKELCSIHAPSGNEEPLKDFILEYIRSNAGSWSYQPVIYADNDLQDCIVLVFGNPRTAVFAHMDSIGFTVSYNNHLHPIGSPSAKEGYRLVGKDSNGDIEGVLKIVDEEWMLETDRLIDRGTEVTFKPDFREEGDFILTPYLDDRLGVWTALELAKTLEHGIIAFTCWEEHGGGSVAYLARWIYETFHVKQSLICDITWVTEGVEAGKGVAISMRDRMIPRKKYVNRIIELARQTDIPFQLEVEGAGASDGRELQLSPYPWDWCFIGAPEKDAHTPNECVHKKDIESMVGLYKYLMEKL | not failed
MQLLPGPVRRFAAWCAVILLASGVVYVAIRLCVEFRTAVTPALLALLGTALLRPLHARLVKAHVQRSLAAGLTCAAVLAVVGGAVYIVVSALVETGDQIVTSLRDAAQGIADHFGAAGTSLDDLASNARELLGKFGGTAASGVVTGISVVGEMIAMAVLALLLVFFFLRDSDRAVTTVRALAPPGGADTVEAVARRAFGAVEGFMRGTTLIALIDAFCITVGLLVLRVPGAVGLGALVFVGAYIPYLGAFISGAVAVLVALADRGFVIALWALGVVLAVQVLEGHVLQPMIQSRTVQMHPAVVLLALTAGASVAGILGMLLAVPLTAAAFGVVHELQARYGVSTAASGPDAGPAPSTGAADS | failed
MQLMRFDKPIGTLLLLHPTLWALFAAAGGIPSSSILIIFILGVIVMRAAGCVINDYADRHIDGKVKRTSQRPLATGRVTTVEAKVLFFVLLIIAFLLDLSLNQYAFLLSFVAVALAVIYPFMKRFTHLPQVVLGMAFGWAIPMAYGAVIEDLPLTCWLLFLANILWTVAYDTQYAMVDRDDDLRIGVKSTAILFAQYDNKIIALLQFLSLILFILFGWLSEYHIGYFIVLALTSTLFIYQCWLTKQRVREQCFKAFLNNNYFGFGIFIAILVGIYGF | failed
MQLWIYGVLIRLVTPAVFVWLWLRGGKDSRYRQNWSERLALGSVDKKQHGCLVIHSVSVGETLAAKRLIEQLLRQEPGQKILITCMTPTARELIQQHFADTVSCRYWPIDSPGAAKRFVRKFKPKAVWVMETELWPQMLNQFSKANIPVALLNARLSARSAAGYRRFHWLMKKVWKQLTLVSVQNKETARRMKVLGVPDSVLFVDGNLKYDIELSVTDIEKALLWRQSCASRHVWLASSSHPGEHELLLEAHKLIQQDLSNSCLIIAPRHPEQFEVVAKMIRESGLKLARRSESNAIPEDCDVFLADSMGEMMLWGQLASASFVGGSIIERGGHNPLEVIAAGSNVMSGRHVFNFPQVYGELAKAGAVQWVNNAGEIKQAVELMQQTAVMKAQHEAAKSVLQTHQGATLRVLKRALEYTLTGSGMIKTEQSPQGLIRYDSDIFETIEDKHFTAQYWQQQKSIAGNSTGRATVWFIQQGDLGLLLRHYYRGGLVGKINKDRFLREPAEKSRAIHEFDLLLKLREIGLPVPRPVAARMEKTAVFSYKADILVEVIPGAVDVFRLLREKKLSAELWQKLGSVIKELHDTGVYHSDLNCHNLMLDDKDKAWIVDFDKCDFRENGDWKEANIQRLLRSLRKEKEKNETFYWKESRDWPELLTGYRR | failed
MQNDFDRVFVLTGGPGSGKTTLIAALRRAGFATSVVAGRGIVRDQSSIGGTALPWSDRTLFAELMLSWEMRSYQNAVEQKGPVFFDRGVPETLGYLRLSGLPVADHVSTAAKRFRYNPRVFIAPPWPDIFAQDEERKQTPDEAKCTYHALAEIYTELGYELVPLPLAPVETRLRFVLADAGLEHHHHHH | failed
MQNLDRDVVIVGAGPSGLTAARELKKAGLSVAVLEARDRVGGRTWTDTIDGAMLEIGGQWVSPDQTVLMELLDELGLKMYSRYRDGESVYIGADGKRTQYTGDTFPVNETTKAEMDKLVAILDELAAEIGPTEPWAHPKARELDTISFHHWLRQNSNDEEACNNIGLFIAGGMLTKPAHAFSALQAVLMAASAGSFSHLTDEDFILDKRVIGGMQQVSLLQAAELGDDVVLNSPVRTIKWDENGVSVVSERATVNARFVIMAVPPNLYSRVSFDPPLPRRQHQMHQHQSLGLVIKVHAVYDTPFWREEGLSGTGFSAGALVQEVYDNTNHGDSRGTLVGFVSDEKADAVFELSAEDRKKAILESIAGFLGDKALTPEVYYESDWGSEEWTRGAYASSYDLGGLHRYGKDQHANVGPIYWSSSDLAAEGYQHVDGAVRMGQATAARIVEANKLASVPVA | not failed
MQNTPVILFDLDGTLIDSTEAVYEGFCVAFEKNGGAIPSQGKVVELIGHTLEDMFLRLGVPEVNITQHVLDYKAHYRIISKPKTNLLPKAREAILEASKFATLGVVTTKTGRFSRELLEYFEVLHFFKSIVGREDVTNAKPHPEPIFKALSEIGIKEVSAWMVGDTPLDLLAAQEAGIKSVAVLSGYAEEEMLRKYTLNVSKD | failed
MQPILWILTLGISLNGVTSVTFLKQFNTSFLDFEIVGVPIIFALTIPLFGSFSSRLEFSNSTIYVVHLLSNRKIIYYFMGTDVIFYAIITFVNVLTVAGLSFILTSEGVNVIGLLAVLPLMLLGSLTSYSLGIIINSLFRNLSSPTSYLFSLIQVILILFSGVYYPLSYLPEYLRIIAFISPYSHLIALIRYILLGYNASDLNALWFYTLPYQVQVVLSISYVIVLGVILFILAGKRLVKGQGMVLL | failed
MQPVEASDYWELARLSQPAVSPTGDRVAYVRTTAERDGDTGQETASVHVAPVGGGGSRRFTAADGTDAEPAWSPTGDRLAFVSTRGDAGGGRPQLWVVPVDGGEATRITDVIGGVSNIAWGPDGDRVAFLQAVRPAERAEELDREHDGEYERDTPDPRVIDRQMYRGHTSYRDGARRHVYVADLAAGRVDRVTAGVAECGGPAWGDDGTLYYPIRRGLDADDRLEWAIEAATPADSADSTVVTTVEGMGPTLAVHGSRVAYTTTPADDPTLTQTAVEVFDRDTGATDRLTDGVDRTVAERTAGHAPEWGPDGEHLYVCTPDEGGYVLRRVAADTGDDRVVLAGDRHVHAFSVSADAVAVVQSEWDHPGEVVAATPMGGEEVTLTRANRDYLDERAVSKPESVWIDGPAGDIQGWVLTPPEFDPEETYPLVVNVHGGPHLMWSAAGTMWHEFQTLAARGYVVFWCNPRGSTGYGQEWLRAVERDWGAVTLADVMAGVAAVTDRDYVDADNAFITGGSFGGFMTGWAVGHTDAFAGAVAQRGVYDLTGFYGTTDAYALVEGEFDTDPVRDNAFLWAQSPAAHTDAVDTPTLLVHSEADYRTPANTAELFYRLLKKHGVDTRLVRYPGEGHDLSRSGDPGHVVDRIERIAAWFDGYSDHHEAAPVLETDRPGAAADE | failed
MQRERTAESSLRVISKEKNSITVEMINYDNTLLRTLVEEILKDDQVDEARYYIKHPVIDNPQIYVRVKSGKPQSAIKRAVRKLSKLYEDLGTQFQKEFQRYESDHMIKAVE | not failed
MQRFVCEQNIAHFQKLLETAEDEKLRRTLLGLLSSAKRELALLHSRLSGADLSPLAYRNRGGDLNSVLAQIRAGFDASDHPYMLIDAGPGLKIIDINDAYARATFTAREAIVGKPLFEIFPDNPAIDTADGVSNVYNSLRAVVETGEPHALAVQRYDMRNTEGVFVERYWQSINTPVRDAGGKLICLLHNVEDVTAEVLAN | failed
MQSAKEKISDMASTAKEKLNIGGAKAQGHAEKTMARTKKEKKLAQEREKSKEAQAKADLHQSKAEHAADAQVHGHHLPGHSTYPTRATGANYPPGQI | failed
MQSFWSKLKIESSKLLPSYFASVMAIGIFSIAFFLYNYNVLSYLLSYLSNVIYFALWVITVIRWVYYPRSYLNELKDLGRSPGFLSKVIATNTIGSEYMLIFKDYSLAYAFFMFGLILWIFYQYAVLSAISFNINDRNIEYVNGIWELIPASTQSVVDLGSILSPFHTYLYTLSLILFFIGVAQYIVMTSLILGRIVLKGLKPKDASGSYWIITGAAALSALAGIDLLIYLNEVNLQSAYIGDLRTIVLTFIILLWSTGTWWIPWLIYMGIWKHVINRVPLLVYDPQFWGAVFPMGMYATSSFLLIRYVNLNIPMLIPDIFILVGSVALVYQTSLMLYNVVKKLVD | failed
MQSSQVKSAMRALEIMEFFRAVKQPRSMSEISIALGYPQSSTTVLLKTLISLGYLNFNRKERLYFPTLKVSALGDWIANSLFSSRDILEVLQDIHMETGETVAIATKNDIYLQYIQIIESVHALRFHVDENAIRPLTMSSNGWMLMSTMNDKAIDNTVRRANTITQKDGIRFEVDDMMARIRQVREQGYASAEHIPFVGGGTICVLLPMTIQGQPVTMGLGGALDRIKQNYDRYLELLLNGVQQLKKSDSFHQPIELAH | failed
MQSVEDKTFCLQTLSANPLAASATGLLPLAEVVIRGIDLPYAKLLVKSADRAIEKIPALKEQFKECQDSFLRIVMSLKSAASELKVSPDTANYDAMICFDETKRVKEVIGKNEDVTSKSLIEMTLRMEKLIFLALGATEVVGG | failed

Source: a protein production outcome set (Wang et al. 2014)
